From patent US20140341881A1 (DERMADIS, published 2014)

Legend:
[1] = biological target: T1, human plasma kallikrein (PK) (human, UniProt P03952 20-638); assay: progress curve, pseudo-first order, fluorogenic substrate
Procedure: (§1) Under these conditions, a fixed amount of enzyme (2 nM) was mixed with different concentrations of inhibitor (0-800 nM) and an excess of substrate (10 μM). Each reaction was made in reaction buffer (50 mM Tris pH 7.5, 150 mM NaCl, 0,05% Triton X-100, 0.01% BSA) at 25° C. for 45 min and the rate of product formation was measured using a FLₓ800 fluorescence 96-well microplate reader (Biotek, USA). In this model, inhibition is considered to be irreversible over the course of reaction and the progress of enzyme activity is expressed by product formation (P), beginning at a rate (vz) and is inhibited over time (t) at a first-order rate (kobs), rate constant that is dependent only on inhibitor concentration.

human kallikrein 2 (hK2) [2] = biological target: T2, human kallikrein 2 (hK2) (human, UniProt P20151 25-261); assay: as above
T2 construct: two preparations treated as one molecule; also called kallikrein hK2
Procedure: as §1

[3] = biological target: T3, human neutrophil elastase (HNE) (human, UniProt P08246 30-247, limits assumed); assay: as above
T3 sequence (looked up): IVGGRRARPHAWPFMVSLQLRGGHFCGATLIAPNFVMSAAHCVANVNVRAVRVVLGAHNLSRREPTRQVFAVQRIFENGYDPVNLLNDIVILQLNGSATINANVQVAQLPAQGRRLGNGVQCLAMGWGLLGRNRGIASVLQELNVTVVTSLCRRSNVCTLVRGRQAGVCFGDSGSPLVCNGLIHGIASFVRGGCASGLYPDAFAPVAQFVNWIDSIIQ
Procedure: as §1

[4] = biological target: T1, human plasma kallikrein (PK); assay: cell-based or functional assay
human kallikrein 2 (hK2) [5] = biological target: T2, human kallikrein 2 (hK2); assay: cell-based or functional assay
[6] = biological target: T4, urokinase plasminogen activator (uPA) (UniProt P00749 21-431, limits assumed); assay: cell-based or functional assay
[7] = biological target: T3, human neutrophil elastase (HNE); assay: cell-based or functional assay
human kallikrein hK1 = human kallikrein hK1 (human, UniProt P06870 25-262); assay: cell-based or functional assay
[8] = biological target: T1, human plasma kallikrein (PK); assay: residual enzyme activity against [I]o/[E]o, fluorogenic substrate
Procedure: (§2) The stoichiometry of inhibition (SI) values were determined for the inhibition of rACTWT and its variants with hK2 and different other enzymes. An initial test was made with a molar excess of rACT (100 fold) over hK2, PSA, hK1, chymotrypsin (Chtr), plasma kallikrein (PK), urokinase (uPA) and human neutrophile elastase (HNE) enzymes. The reaction was carried out for 30 min at 25° C. (90 min at 37° C. for PSA) in reaction buffer (50 mM Tris pH 7.5, 150 mM NaCl, 0,05% Triton X-100, 0.01% BSA) and residual enzyme activity was measured by adding fluorescent substrates (Z-Phe-Arg-AMC for hK1, hK2 and PK, Suc-Ala-Ala-Pro-Phe-AMC for Chtr, Z-Gly-Gly-Arg-AMC for uPA, MeOSuc-Ala-Ala-Pro-Val-AMC for HNE, and CFP-TFRSA-YFP (TFRSA SEQ ID NO:137) for PSA). Activity of enzyme in presence of inhibitors was compared to uninhibited reaction. For reactions where an inhibition was observed, SI was determined by incubating different concentrations of recombinant serpins. Using linear regression analysis of fractional activity (velocity of inhibited enzyme reaction/velocity of uninhibited enzyme reaction) versus the molar ratio of the inhibitor to enzyme ([Iₒ]/[Eₒ]), the stoichiometry of inhibition, corresponding to the abscissa intercept, was obtained.

human kallikrein 2 (hK2) [9] = biological target: T2, human kallikrein 2 (hK2); assay: as above
Procedure: as §2

[10] = biological target: T3, human neutrophil elastase (HNE); assay: as above
Procedure: as §2

[11] = biological target: T4, urokinase plasminogen activator (uPA); assay: cell-based or functional assay; remark: listed apart in the source
thrombin [12] = assay: cell-based or functional assay
[13] = biological target: T5, human chymotrypsin (Chtr) (human, UniProt P17538 19-263); assay: cell-based or functional assay
T5 sequence (P17538 19-263): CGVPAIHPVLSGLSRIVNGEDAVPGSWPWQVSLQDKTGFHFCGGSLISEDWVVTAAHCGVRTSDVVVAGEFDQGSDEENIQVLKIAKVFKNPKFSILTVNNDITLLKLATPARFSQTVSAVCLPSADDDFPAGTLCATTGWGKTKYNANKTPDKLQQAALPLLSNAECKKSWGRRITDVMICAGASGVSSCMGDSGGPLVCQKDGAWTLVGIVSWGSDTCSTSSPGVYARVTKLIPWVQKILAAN

[14] = biological target: T5, human chymotrypsin (Chtr); assay: cell-based or functional assay; remark: listed apart in the source
[15] = biological target: T6, prostate specific antigen (PSA, hK3) (human, UniProt P07288 25-261); assay: cell-based or functional assay
human kallikrein 2 (hK2) [16] = biological target: T2, human kallikrein 2 (hK2); assay: cell-based or functional assay; remark: listed apart in the source
human kallikrein 8 (hK8) = biological target: T7, human kallikrein 8 (hK8) (human, UniProt O60259 33-260); assay: cell-based or functional assay
T7 sequence (looked up): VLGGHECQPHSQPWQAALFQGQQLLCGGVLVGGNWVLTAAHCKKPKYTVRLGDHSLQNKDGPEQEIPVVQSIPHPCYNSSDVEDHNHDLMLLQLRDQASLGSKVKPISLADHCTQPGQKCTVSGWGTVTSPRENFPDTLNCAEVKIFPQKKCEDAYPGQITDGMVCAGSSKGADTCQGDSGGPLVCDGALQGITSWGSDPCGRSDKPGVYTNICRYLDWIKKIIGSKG

thrombin [17] = assay: cell-based or functional assay; remark: listed apart in the source
[18] = biological target: T5, human chymotrypsin (Chtr); assay: cell-based or functional assay; remark: listed apart in the source
[19] = biological target: T6, prostate specific antigen (PSA, hK3); assay: cell-based or functional assay; remark: listed apart in the source
human kallikrein 5 (hK5) = biological target: T8, human kallikrein 5 (hK5) (human, UniProt Q9Y337 67-293, limits assumed); assay: cell-based or functional assay
T8 sequence (looked up): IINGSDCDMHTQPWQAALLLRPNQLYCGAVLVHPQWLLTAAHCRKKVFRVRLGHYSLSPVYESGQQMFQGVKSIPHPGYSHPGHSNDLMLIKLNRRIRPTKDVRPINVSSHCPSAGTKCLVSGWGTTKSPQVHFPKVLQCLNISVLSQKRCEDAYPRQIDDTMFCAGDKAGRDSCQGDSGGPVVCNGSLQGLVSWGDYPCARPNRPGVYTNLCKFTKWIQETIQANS

human kallikrein 6 (hK6) = human kallikrein 6 (hK6) (human, UniProt Q92876 22-244); assay: cell-based or functional assay
[20] = biological target: T9, human kallikrein 13 (hK13) (human, UniProt Q9UKR3 26-277, limits assumed); assay: cell-based or functional assay
T9 sequence (looked up): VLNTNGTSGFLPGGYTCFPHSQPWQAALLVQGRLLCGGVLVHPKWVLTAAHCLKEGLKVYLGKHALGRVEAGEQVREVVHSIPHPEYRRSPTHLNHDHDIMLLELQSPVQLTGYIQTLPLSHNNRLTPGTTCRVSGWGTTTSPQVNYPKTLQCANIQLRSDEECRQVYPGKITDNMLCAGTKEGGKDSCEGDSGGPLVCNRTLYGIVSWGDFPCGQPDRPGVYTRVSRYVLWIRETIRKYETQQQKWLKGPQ

[21] = biological target: T5, human chymotrypsin (Chtr); assay: residual enzyme activity against [I]o/[E]o, fluorogenic substrate
Procedure: as §2

T1 sequence (P03952 20-638 limits assumed): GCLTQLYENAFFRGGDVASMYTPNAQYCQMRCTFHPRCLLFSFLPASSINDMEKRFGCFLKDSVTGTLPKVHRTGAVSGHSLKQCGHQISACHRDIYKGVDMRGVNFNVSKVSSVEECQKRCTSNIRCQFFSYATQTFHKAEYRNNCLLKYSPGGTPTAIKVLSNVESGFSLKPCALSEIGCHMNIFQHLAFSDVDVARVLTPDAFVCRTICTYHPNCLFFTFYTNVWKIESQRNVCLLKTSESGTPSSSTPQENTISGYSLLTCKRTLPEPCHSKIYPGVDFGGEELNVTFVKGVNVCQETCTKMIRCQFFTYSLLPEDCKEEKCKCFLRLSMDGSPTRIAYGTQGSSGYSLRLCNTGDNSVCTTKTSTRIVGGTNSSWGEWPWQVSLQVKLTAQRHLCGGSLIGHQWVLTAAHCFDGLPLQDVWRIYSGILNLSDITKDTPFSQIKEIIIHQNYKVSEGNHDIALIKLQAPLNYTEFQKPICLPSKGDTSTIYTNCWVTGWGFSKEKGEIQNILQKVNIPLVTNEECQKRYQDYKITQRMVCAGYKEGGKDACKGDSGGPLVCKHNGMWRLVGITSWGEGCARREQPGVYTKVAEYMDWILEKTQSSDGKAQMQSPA

B1: rACT6.1 (other)
chain: MRGSHHHHHHSRHPNSPLDEENLTQENQDRGTHVDLGLASANVDFAFSLYKQLVLKAPDKNVIFSPLSISTALAFLSLGAHNTTLTEILKGLKFNLTETSEAEIHQSFQHLLRTLNQSSDELQLSMGNAMFVKEQLSLLDRFTEDAKRLYGSEAFATDFQDSAAAKKLINDYVKNGTRGKITDLIKDLDSQTMMVLVNYIFFKAKWEMPFDPQDTHQSRFYLSKKKWVMVPMMSLHHLTIPYFRDEELSCTVVELKYTGNASALFILPDQDKMEEVEAMLLPETLKRWRDSLEFREIGELYLPKFSISRDYNLNDILLQLGIEEAFTSKADLSGITGARNLAVSQVVHKAVLDVFEEGTEASAATAVKIMTRSNAVETRTIVRFNRPFLMIIVPTDTQNIFFMSKVTNPKQA
notes: recombinant ACT variant, RSL substrate peptide MTRSN; N-terminal His tag, E. coli TG1; also called MD61; MD 61
kon [1]: 8020 M⁻¹ s⁻¹ | kon (human kallikrein 2 (hK2) [2]): 3440 M⁻¹ s⁻¹ | kon [3]: 1190 M⁻¹ s⁻¹ | INHIBITION % [4]: 100% | INHIBITION % (human kallikrein 2 (hK2) [5]): 100% | INHIBITION % [6]: 0% | INHIBITION % [7]: 60% | INHIBITION % (human kallikrein hK1): 0% | SI (stoichiometry of inhibition) [8]: 16 | SI (stoichiometry of inhibition) (human kallikrein 2 (hK2) [9]): 19 | SI (stoichiometry of inhibition) [10]: 159

B2: rACTWT (recombinant wild type alpha-1-antichymotrypsin) (other, human)
chain: HHHHHHHPNSPLDEENLTQENQDRGTHVDLGLASANVDFAFSLYKQLVLKAPDKNVIFSPLSISTALAFLSLGAHNTTLTEILKGLKFNLTETSEAEIHQSFQHLLRTLNQSSDELQLSMGNAMFVKEQLSLLDRFTEDAKRLYGSEAFATDFQDSAAAKKLINDYVKNGTRGKITDLIKDLDSQTMMVLVNYIFFKAKWEMPFDPQDTHQSRFYLSKKKWVMVPMMSLHHLTIPYFRDEELSCTVVELKYTGNASALFILPDQDKMEEVEAMLLPETLKRWRDSLEFREIGELYLPKFSISRDYNLNDILLQLGIEEAFTSKADLSGITGARNLAVSQVVHKAVLDVFEEGTEASAATAVKITLLSALVETRTIVRFNRPFLMIIVPTDTQNIFFMSKVTNPKQA
notes: also called wild type rACT; wild type ACT
% Inhibition [11]: 0% | % Inhibition (thrombin [12]): 18% | % Inhibition [13]: 100% | INHIBITION % (human kallikrein 2 (hK2) [5]): 0% | INHIBITION % [6]: 0% | INHIBITION % (human kallikrein hK1): 0% | INHIBITION % [14]: 100% | INHIBITION % [15]: 80% | Percentage inhibition (human kallikrein 2 (hK2) [16]): 0% | Percentage inhibition (human kallikrein 8 (hK8)): 0% | Percentage inhibition (thrombin [17]): 18% | Percentage inhibition [18]: 100% | Percentage inhibition [19]: 100% | Percentage inhibition (human kallikrein 5 (hK5)): 7% | Percentage inhibition (human kallikrein 6 (hK6)): 24% | Percentage inhibition [20]: 0% | SI (stoichiometry of inhibition) [21]: 2
